{
  "source": "the DeepSol protein solubility set",
  "data": [
    {"assay": "soluble on expression in E. coli; label from the status in PepcDB or PDB records", "values": [
      {"sequence": "MRKQLPVICVAAGIVLLAACTNDGGQQQTTVAPQPAVCNGPTVEISGAEPRYEPLNPTANQDYQRDGKSYKIVQDPSRFSQAGLAAIYDAEPGSNLTASGEMFDPMQLTAAHPTLPIPSYARITNLANGRMIVVRINDRGPYGTDRVISLSRAAADRLNTSNNTKVRIDPIIVAPDGSLSGPGMACTTVAKQTYALPPRPDLSGGMGSASSAPAQPQGDVLPVSNSTLKSDDTTGAPVSSSGFLGAPTTLAPGVLESNEPTPAPQPAPVSAPVAAPATAPATATPVSAPAAAAPVSAPVSAPAAAASGRFVVQVGAVSDQTRAQQYQQRLSQQFSVPGRVIQNGAVWRIQLGPFASKAEASALQQRLQTEAQLQSFIASAQ", "soluble on expression in E. coli": "not soluble"},
      {"sequence": "MMNLRSIAMNKPDLVIFFDGQCPLCCNEMRALKTADHQARILLVDVHDTDTMSCYPSIDKQRALSILHGIDQQGQLLYGLDVTVLAWRLVNRHRWLFITRMPILKGISDRMYLLFAKHRMRLSRWFGQTQCQEGVCQKKLEHHHHHH", "soluble on expression in E. coli": "soluble"},
      {"sequence": "MGSDKIHHHHHHMTVWRFKKSQKGLVGVDITSATVKLIELESSGAGHRIASYAVRPLHEGAVVERRIRDLDEVANTLTRAVEHARPHSRRAVAAVPASAAITKTLTYPASLTDDEIEARIQLESERHIPFPLNEVAFDFQRLGLNARYPDQQDILLVACRLQDVDRLADVLRRAGLEPAAVDVETFAMERAAGELLLGQAASQPDDECVALVDIGANMNAFHVLIDGRIAYTRDNVLGGRHLTEEIRKRYGLSLEEAGLAKKRGGLPEDYELEVLTPYIDMLIQQVGRSLQLYYTSGKPRDIQRLVLAGGSSVIPGLRERLAAQSGLEVVMANPFSRMRVASRVDVQALASDAPAMLTACGLAMRGRR", "soluble on expression in E. coli": "not soluble"},
      {"sequence": "MGSDKIHHHHHHMKVICITQARMGSSRLPGKVLKIIGTRPMLEYHVRRVAKSKLINHHIIATSNQENDLPIVEYCQQNNIDYYRGNETDVLGRFYETALSVHAEPDDIIIRLTGDCPLICPQLIDDAIKLQFSGESQQYTHVSLAYFPRGFDVEVFRMRSLSEAYFKALAPAQREHVTLYLYSKPDALIVPVTLHGNPSWSHFRLCVDEQDDFLLVEQLICRLGEQWLDAGPRQICELLEGNPQLVTINAHIHQRTAH", "soluble on expression in E. coli": "not soluble"},
      {"sequence": "MSGLDDRKKLTHAKNRKPLNDIPKSAENRPNTRSTSSRRGAEKDVPITFIGSSRTVKADLPEFTNTRSRRPLHSESKKELSRNPVSRGEEHSSSLPKSSPESSVSVMSSNASLWSACTEEVNKIGVCAKRESRNLRVYKMKSFTSNMEQILSNDNQLAPTVIRILNSRNSWCLNSCHACLTFIMENITSDNYGKRSACLKALASITNSLLDTIIGFASTKTRRIGVDVVAEERAAKATECIHNFRKIVKNRDKIYKQIDQETIYKLDAILERLKKVSSHK", "soluble on expression in E. coli": "not soluble"},
      {"sequence": "SEQKSTASGTCGGKPAERGPLAGHMPSSRPHRVDFCWVPGSDPGTFDGSPWLLDRFLAQLGDYMSFHFEHYQDNISRVCEILRRLTGRAQAWAAPYLDGDLPLPDDYELFCQDLKEVVQDPNSFAEYHAVVTCPLPLASSQLPVAPQLPVVRQYLARFLEGLALDMGTAPRSLPAAMATPAVSGSNSVSRSALFEQQLTKESTPGPKEPPVLPSSTCSSKPGPVEPASSQPEEAAPTPVPRLSESANPPAQRPDPAHPGGPKPQKTEEEVLETEGDQEVSLGTPQEVVEAPETPGEPPLSPGF", "soluble on expression in E. coli": "soluble"},
      {"sequence": "SAAPSEVAAIAPGEGDGGGGGFGSWLDGRLEALGVDRAVYGAYILGILQEEEEEEKLDALQGILSAFLEEDSLLNICKEIVERWSETQNVVTKVKKEDEVQAIATLIEKQAQIVVKPRMVSEEEKQRKAALLAQYADVTDEEESLTEADEKDDSGATTMNIGSDKLLFRNTNVEDVLNARKLERDSLRDESQRKKEQDKLQRERDKLAKQERKEKEKKRTQRGERKR", "soluble on expression in E. coli": "soluble"},
      {"sequence": "MLKIISANVNGIRSAYKKGFYEYIAASGADIVCVQELKAQEADLSADMKNPHGMHGHWHCAEKRGYSGVAVYSKRKPDNVQIGMGIEEFDREGRFVRCDFGRLSVISLYLPSGSSAEERQQVKYRFLDAFYPMLEAMKNEGRDIVVCGDWNIAHQNIDLKNWKGNQKNSGFLPEEREWIGKVIHKLGWTDMWRTLYPDVPGYTWWSNRGQAYAKDVGWRIDYQMVTPELAAKAVSAHVYKDEKFSDHAPLVVEYDYAAE", "soluble on expression in E. coli": "soluble"},
      {"sequence": "MADLPSISLITATYNAAQHLPGLIESVRQQSDRAFEWIVIDGASEDGTLDLIRGAQDVITDYVSEPDFGIFHALNKGIQRATGDYYLVVGADDRLDPLAIANYKQAAASSQADLISAYIYSEKKAIIKPTGGAIWHHGVQAFITTQSVGTLIKRNLHEHYGYYSHYYPTAADALFILKVQQGGGKITTAEFIAGQYNTKGFSYRYKANLLCELFLIQKEFFPKSIQLLLLIYRLIKNYRYLLEHHHHHH", "soluble on expression in E. coli": "not soluble"},
      {"sequence": "MGSDKIHHHHHHMIFSNLKLNDNEPIYIQLKNYISDMISKGLIPDNSKLPSTRELSQLLQVSRNSVVLTYEELKSEGLIYSISGKGTFVKSKNKSSNTTWSLNWDCLENTYSKKANELDIIKSEIPWSSDLISFKSISPDGDLFDMEELKKSFLNRISLEGHKLLNYGYAQGYKPLIDYLLEYMTNKGADISNKDILITNGFTEGFDIIMSSFTQEKDYIICENPTHNTAIKIMKSHNLNILGVDINEDGLDFNMLEDNLIKYKNKIKFAYITPSYHNPTGIVMTPENRYKFYNLMKKYNIAIIEDGFNEELLYNSSHIFPICSLDNMNNGVVYIGSFSKILFPGMRIGWIFADKKVINKLESVKRCRNIHVSFLDQGILFDYLSNGGFEKYIKKIRKFYGDKFNFAYKCIKKYIKTEYILGDGGLHIFIKLKNIDTRVLLEKCYEKNVIFMPGDLFFTDNSGFDTLRLGFSRLSFEDIEIGIKIIGETINEMF", "soluble on expression in E. coli": "not soluble"},
      {"sequence": "MSLSDLHTKYMGLTLRSPLVASAGPIQQKVDGVRALADAGVGAIVMYSLFEEQVRHEEARQAEIELEYMDSFAESLSFFPTVASNEGGITERYLAHLEASANAVDIPVIASLNGATNGGWVDTAKRMENAGAAGIECNIYMVPGDLEQSAEEVEDRHVEIVQAVKDAVSVPVAVKLSPFFSALGNMATRLDAAGADALVMFNRFLQPDINVETMQVEPGVWLSSPADARLPLTWIAVLSGRIGASLAASSGVESANDVVKYLLAGADVVMTTSALVRHGAGYATELQKGLESYLQRKEVDLDTLRGTLAVPNDASTAEYERNGYVAALEKAKTTYGEGHHHHHH", "soluble on expression in E. coli": "not soluble"},
      {"sequence": "MFQIQETIVSPDLFDKYFVCDYATCQGICCVEGESGAPLEAGEADLLRKYLDAVRDMLSSEALEVIDKQGVSYLDVEGDEVTSIVNGRDCVFTTYDEKGNCLCAFERAYRLGKIDFPKPLSCHLYPVRLTRYSSFTAVNYHRWEICRCAEALGRQMGTPLYRFLKEPLIRAFGKEWYKEMEEIAALLEQNPLKR", "soluble on expression in E. coli": "not soluble"},
      {"sequence": "MGSDKIHHHHHHMPFENAPHLVFWEVTKACPLSCKHCRANAIDKPLPGELSTEESKKLLEDIARFGKVVIVFTGGDPLSRSDIFEIMEYAKSLGLIVSIAPSPSYRLRDETMKMISNYARYMSISIDGATSQTHDWLRGLGSYNYALRGIELGLKYGIQVQVNTLVWKKSYSELPFLVKLLKELGVKVWEVFFLIPVGRGVIELDIPKEKYKDVIDFLVETTRYDLVVRTVEAPFFRRAKLEYTPSTIKSNELVSKLRELLGEPVKDVDKSVLPTRDGSGVIFIGYNGDVYPSGFLPLYLGNVRKESIVDIYRKSEVLKIIKDGRFDGKCGVCKFNNICGGSRARAFAVYNNPFAEDPMCPY", "soluble on expression in E. coli": "not soluble"},
      {"sequence": "MTEAQLTLPTTKLSPTQKTQFIKLEKKLRRNVGQAIAQYNMIEDGDKVMVCLSGGKDSYAMLSILMLLKESAPIHFDIIAVNLDQKQPGFPEHILPEYLDKLGIEYHIVEEDTYGIVKEKVPEGKTTCSLCSRLRRAVLYKAAKKIGATKIALGHHRDDMIETLMLNMFYGGKMKAMPAKLVSDNGEHVVIRPLAFCKESELIQYSELKHFPIIPCNL", "soluble on expression in E. coli": "not soluble"},
      {"sequence": "MSSIDIVIPNYNYGRFLKGCVESVLGQNIADMRILIIDNASTDDSVAISRSLAAANPRIETSLRARNLGGHASFNAGIDWARADYFAIICADDVLSPGALARAMEALDNNPGAHMAFGRTAFFRDDAEIASGLHSDADGMRLHRGMDFIANICATGRSPVQGPLAVTRTHIQQHAGHYRPALRHTDDVEMWMRLAVLGDIVELDAVQNFTRIHGANQSAILDNVLAWNAEIEAALESFFGNEGALLADAKTLLRRGRASLSDRAYWCALSNLVRRRPGAGALLAQAFRLRPASALLPPISYLMRRPDALHRIRAAIARRLEHHHHHH", "soluble on expression in E. coli": "not soluble"},
      {"sequence": "MGSDKIHHHHHHVTAPAFLPVILAGGSGERFWPLSRKHRPKQFLTLDETGRSLLQATSDRLGRLSGSPEQVMVVTGTEYRTQVLEQLPDMPIEHLIVEPVARDTAPAVLYAALRVAQENPQAVMGVFPADHRITDAQAFGRVVRRAIEVAEITGGLVTLGVTPTFPATGYGYIQRGEQLLGGELPAFRVSRFTEKPDAETAQLFLADGRYTWNSGMFIWRVQAILAAFEQYQPDMYAQLSAAVRGSPRQVRAVFPELQKISIDYAILEKSDQVVVIPAEFGWDDLGDWNALERLLKGEGQNVAVGRHVGLDTDGAILYTTGGDGLIATIGLEDVVVVRTDEVTLVVRKDRTQDIKKVVQQLKSHPELERFA", "soluble on expression in E. coli": "not soluble"},
      {"sequence": "SGSSEDQAYRLLNDYANGFMVSQVLFAACELGVFDLLAEAPGPLDVAAVAAGVRASAHGTELLLDICVSLKLLKVETRGGKAFYRNTELSSDYLTTVSPTSQCSMLKYMGRTSYRCWGHLADAVREGRNQYLETFGVPAEELFTAIYRSEGERLQFMQALQEVWSVNGRSVLTAFDLSVFPLMCDLGGDFFKDPLPEADLYILARVLHDWADGKCSHLLERIYHTCKPGGGILVIESLLDEDRRGPLLTQLYSLNMLVQTEGQERTPTHYHMLLSSAGFRDFQFKKTGAIYDAILARK", "soluble on expression in E. coli": "soluble"},
      {"sequence": "MEPRFAGYAQKVRDSFARQPVMATLGARIDTLLPGRVELCMPYDRALTQQHGFLHAGIVSTVLDSACGYAAFSLMEEEAAVLTVEFKVNFLNPAEGERFAFRAEVVKPGRTLTVATATAYAFRDGEERAIATMTATLMALIGLEHHHHHH", "soluble on expression in E. coli": "soluble"},
      {"sequence": "VFPSSVYVPDEWEVSREKITLLRELGQGSFGMVYEGNARDIIKGEAETRVAVKTVNESASLRERIEFLNEASVMKGFTCHHVVRLLGVVSKGQPTLVVMELMAHGDLKSYLRSLRPEAENNPGRPPPTLQEMIQMAAEIADGMAYLNAKKFVHRDLAARNCMVAHDFTVKIGDFGMTRDIYETDYYRKGGKGLLPVRWMAPESLKDGVFTTSSDMWSFGVVLWEITSLAEQPYQGLSNEQVLKFVMDGGYLDQPDNCPERVTDLMRMCWQFNPNMRPTFLEIVNLLKDDLHPSFPEVSFFHSEENK", "soluble on expression in E. coli": "soluble"},
      {"sequence": "MGSDKIHHHHHHVTIEIRQLRYALMSADLRSFSGAASRLNVKQATLSRSVLQLEDRLGIKLFERTTRGAEPTETGKVFLETARRIITDLENLQTTARAVSYGEQGRFAVGYCSSLMAGHLKAAFSDYLTRFPDVQFDGVEGDPDKLCSDLRAGTIDVAIAPLGSEEQGIASRPVWSERLVAALYPEHPLLEASRIYWGDLRREIFVVPRKGIGQMIRNMITARLTGQGYRPNIITQETSLESVLSMVPVGRFITIATEASMGVAWPELQFRDIYDNGGTARIDFALYWREDNENPALQRFFTMINERYPA", "soluble on expression in E. coli": "not soluble"},
      {"sequence": "MAATVDTMSEEVKRLIALYELTPHPASGGWFRETYRSDVQVEAEGFDGKRSVLTMIYYLMQAGQPDPFHRVKSDETFVHNLGGSMKIHMIHPDGSYSCSILGNPLEHPEARHQVVVPRRVWFAQEVDGYCLASVLVAPGFDFKDFSLGKREELIKEYPQHRDVIMRCTSSDP", "soluble on expression in E. coli": "soluble"}
    ]}
  ]
}
